Results: article PMC4043579 (Reproduction (Cambridge, England), 2014)

Molecular target: T1, mouse gremlin-2 (GREM2; PRDC) (mouse, UniProt O88273 22-168)
T1 sequence (looked up): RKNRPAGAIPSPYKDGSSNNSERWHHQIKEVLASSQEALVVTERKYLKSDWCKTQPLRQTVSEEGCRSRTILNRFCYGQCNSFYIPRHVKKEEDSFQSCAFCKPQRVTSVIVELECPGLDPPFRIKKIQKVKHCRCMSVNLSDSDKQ
Assay: co-IP

- binding result: binds
B1: human anti-Müllerian hormone (AMH) (ligand, UniProt P03971 452-560, looked up)
chain: SAGATAADGPCALRELSVDLRAERSVLIPETYQANNCQGVCGWPQSDRNPRYGNHVVLLLKMQVRGAALARPPCCVPTAYAGKLLISLSEERISAHHVPNMVATECGCR
